According to paper PMC10495264 (Nature Cell Biology, 2023):

Columns and labels:
yeast cells = assay: Drop spot growth assays on rapamycin and/or cerulenin plates; type: cell-based, Saccharomyces cerevisiae; details: low / sublethal doses combined
Experimental: Yeast cells (Saccharomyces cerevisiae) were cultured in liquid SC medium (1.7 g l^−1 yeast nitrogen base (cat. no. 1545, CONDA), 5 g l^−1 ammonium sulfate (cat. no. 4808211, MP Biomedicals), 20 g l^−1 glucose (cat. no. 1422, AppliChem), 2 g l^−1 amino acid dropout –His (D9520, US Biological) and 35 mg l^−1 histidine (A1341, AppliChem) at 30 °C to the exponential growth phase, unless otherwise stated in the figure legends. All yeast strains used in this study are listed in Supplementary Table 1.

[1] = biological target: TORC1 containing the N-terminally GFP-tagged Tor1 subunit (Saccharomyces cerevisiae) (UniProt P35169); assay: MST; GFP–Tor1-containing TORC1 (7.5 nM) as fluorescent target, 16 twofold dilutions of Acc1 (highest 80 nM) or Fas1 (highest 20 nM); 50 mM HEPES NaOH pH 7.5, 150 mM NaCl; 30 °C; Monolith NT.115
TORC1 [2] = biological target: T1, TORC1 (Saccharomyces cerevisiae, UniProt P35169); assay: MST binding affinity assays with fluorescent TORC1 (GFP–Tor1)
T1 construct: made in house; host or cells: S. cerevisiae strain NIC005 ([RL170-2c] LEU2:GFP-TOR1)
T1 sequence (P35169 whole entry): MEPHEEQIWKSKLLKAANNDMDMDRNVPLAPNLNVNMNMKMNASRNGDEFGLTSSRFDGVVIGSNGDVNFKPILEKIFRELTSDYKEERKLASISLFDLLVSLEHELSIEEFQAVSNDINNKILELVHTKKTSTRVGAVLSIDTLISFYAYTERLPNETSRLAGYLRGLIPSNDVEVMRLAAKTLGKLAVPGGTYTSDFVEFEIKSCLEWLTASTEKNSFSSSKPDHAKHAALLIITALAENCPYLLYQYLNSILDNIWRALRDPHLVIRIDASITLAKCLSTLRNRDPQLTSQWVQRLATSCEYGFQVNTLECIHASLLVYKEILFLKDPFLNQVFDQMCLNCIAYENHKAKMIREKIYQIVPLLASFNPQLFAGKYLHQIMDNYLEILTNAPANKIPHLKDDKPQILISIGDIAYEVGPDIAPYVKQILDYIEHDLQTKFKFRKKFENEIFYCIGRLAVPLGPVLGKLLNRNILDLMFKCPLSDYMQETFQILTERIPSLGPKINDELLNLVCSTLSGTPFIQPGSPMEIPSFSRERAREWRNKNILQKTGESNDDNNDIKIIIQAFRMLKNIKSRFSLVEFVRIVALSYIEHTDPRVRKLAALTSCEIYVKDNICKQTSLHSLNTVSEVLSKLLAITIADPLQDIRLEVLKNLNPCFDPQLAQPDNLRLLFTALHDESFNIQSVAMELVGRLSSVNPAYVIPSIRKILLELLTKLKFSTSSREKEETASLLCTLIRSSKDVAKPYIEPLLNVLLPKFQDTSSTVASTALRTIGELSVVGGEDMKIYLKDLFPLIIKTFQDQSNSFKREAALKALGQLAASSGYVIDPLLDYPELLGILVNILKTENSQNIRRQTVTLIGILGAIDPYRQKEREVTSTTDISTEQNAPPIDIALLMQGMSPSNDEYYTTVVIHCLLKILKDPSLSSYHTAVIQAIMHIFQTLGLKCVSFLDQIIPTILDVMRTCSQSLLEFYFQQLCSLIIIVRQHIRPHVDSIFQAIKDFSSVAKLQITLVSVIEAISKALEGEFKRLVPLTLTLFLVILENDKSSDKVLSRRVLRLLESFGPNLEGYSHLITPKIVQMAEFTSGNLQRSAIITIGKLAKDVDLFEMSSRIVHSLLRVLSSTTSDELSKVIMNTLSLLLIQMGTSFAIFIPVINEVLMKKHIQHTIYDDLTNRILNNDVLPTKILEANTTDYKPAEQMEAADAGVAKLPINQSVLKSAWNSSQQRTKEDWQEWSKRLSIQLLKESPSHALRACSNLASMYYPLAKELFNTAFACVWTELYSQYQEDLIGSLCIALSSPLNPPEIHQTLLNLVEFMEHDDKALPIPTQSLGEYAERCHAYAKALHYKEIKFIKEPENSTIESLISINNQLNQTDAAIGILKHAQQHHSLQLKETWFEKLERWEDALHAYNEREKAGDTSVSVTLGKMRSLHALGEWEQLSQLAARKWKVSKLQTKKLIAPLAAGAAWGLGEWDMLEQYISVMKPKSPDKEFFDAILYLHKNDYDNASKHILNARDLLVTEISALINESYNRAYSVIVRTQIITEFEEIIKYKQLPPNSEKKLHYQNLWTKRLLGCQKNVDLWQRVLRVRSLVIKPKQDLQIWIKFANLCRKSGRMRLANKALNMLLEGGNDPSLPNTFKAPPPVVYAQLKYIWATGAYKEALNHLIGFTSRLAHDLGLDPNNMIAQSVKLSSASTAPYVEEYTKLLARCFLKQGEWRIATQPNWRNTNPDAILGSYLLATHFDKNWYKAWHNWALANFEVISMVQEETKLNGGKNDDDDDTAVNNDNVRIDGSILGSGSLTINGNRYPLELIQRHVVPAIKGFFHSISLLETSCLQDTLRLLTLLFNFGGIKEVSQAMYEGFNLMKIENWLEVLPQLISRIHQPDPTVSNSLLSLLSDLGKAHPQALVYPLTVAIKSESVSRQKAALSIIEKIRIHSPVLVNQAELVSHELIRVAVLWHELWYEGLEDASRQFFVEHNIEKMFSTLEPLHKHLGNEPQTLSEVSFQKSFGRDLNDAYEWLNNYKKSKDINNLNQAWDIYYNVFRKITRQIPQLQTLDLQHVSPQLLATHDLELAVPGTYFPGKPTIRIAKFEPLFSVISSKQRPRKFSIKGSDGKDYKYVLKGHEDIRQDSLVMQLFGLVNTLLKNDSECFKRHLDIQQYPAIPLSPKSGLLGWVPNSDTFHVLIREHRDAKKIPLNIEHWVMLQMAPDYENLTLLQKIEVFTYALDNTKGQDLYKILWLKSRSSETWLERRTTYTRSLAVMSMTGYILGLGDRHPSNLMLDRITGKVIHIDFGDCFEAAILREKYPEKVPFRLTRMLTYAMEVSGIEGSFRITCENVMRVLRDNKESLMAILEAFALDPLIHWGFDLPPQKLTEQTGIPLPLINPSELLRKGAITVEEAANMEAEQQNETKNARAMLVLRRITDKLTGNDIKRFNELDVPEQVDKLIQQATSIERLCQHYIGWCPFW
T1 sequence (Q08921 whole entry partner): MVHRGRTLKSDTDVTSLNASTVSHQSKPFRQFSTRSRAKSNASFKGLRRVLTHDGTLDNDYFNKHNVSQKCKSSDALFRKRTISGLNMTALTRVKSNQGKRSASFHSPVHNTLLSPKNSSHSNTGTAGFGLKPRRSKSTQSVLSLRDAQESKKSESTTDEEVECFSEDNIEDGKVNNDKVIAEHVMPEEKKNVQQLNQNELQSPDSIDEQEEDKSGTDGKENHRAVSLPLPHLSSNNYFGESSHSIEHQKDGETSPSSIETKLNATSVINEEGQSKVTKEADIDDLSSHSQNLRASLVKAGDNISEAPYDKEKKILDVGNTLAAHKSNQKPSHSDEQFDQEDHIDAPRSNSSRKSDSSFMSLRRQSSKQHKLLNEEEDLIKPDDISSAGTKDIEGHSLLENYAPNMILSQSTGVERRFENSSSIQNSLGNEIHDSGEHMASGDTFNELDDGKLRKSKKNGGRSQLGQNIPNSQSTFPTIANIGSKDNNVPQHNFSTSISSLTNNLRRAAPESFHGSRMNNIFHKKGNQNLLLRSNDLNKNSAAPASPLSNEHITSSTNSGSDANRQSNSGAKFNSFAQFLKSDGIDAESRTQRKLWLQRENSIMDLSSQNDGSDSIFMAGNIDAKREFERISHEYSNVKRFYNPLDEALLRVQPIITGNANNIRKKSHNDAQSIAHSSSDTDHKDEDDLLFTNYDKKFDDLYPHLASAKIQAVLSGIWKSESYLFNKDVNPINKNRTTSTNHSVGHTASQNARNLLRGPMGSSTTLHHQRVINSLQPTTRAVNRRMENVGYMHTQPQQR
T1 sequence (P38873 whole entry partner): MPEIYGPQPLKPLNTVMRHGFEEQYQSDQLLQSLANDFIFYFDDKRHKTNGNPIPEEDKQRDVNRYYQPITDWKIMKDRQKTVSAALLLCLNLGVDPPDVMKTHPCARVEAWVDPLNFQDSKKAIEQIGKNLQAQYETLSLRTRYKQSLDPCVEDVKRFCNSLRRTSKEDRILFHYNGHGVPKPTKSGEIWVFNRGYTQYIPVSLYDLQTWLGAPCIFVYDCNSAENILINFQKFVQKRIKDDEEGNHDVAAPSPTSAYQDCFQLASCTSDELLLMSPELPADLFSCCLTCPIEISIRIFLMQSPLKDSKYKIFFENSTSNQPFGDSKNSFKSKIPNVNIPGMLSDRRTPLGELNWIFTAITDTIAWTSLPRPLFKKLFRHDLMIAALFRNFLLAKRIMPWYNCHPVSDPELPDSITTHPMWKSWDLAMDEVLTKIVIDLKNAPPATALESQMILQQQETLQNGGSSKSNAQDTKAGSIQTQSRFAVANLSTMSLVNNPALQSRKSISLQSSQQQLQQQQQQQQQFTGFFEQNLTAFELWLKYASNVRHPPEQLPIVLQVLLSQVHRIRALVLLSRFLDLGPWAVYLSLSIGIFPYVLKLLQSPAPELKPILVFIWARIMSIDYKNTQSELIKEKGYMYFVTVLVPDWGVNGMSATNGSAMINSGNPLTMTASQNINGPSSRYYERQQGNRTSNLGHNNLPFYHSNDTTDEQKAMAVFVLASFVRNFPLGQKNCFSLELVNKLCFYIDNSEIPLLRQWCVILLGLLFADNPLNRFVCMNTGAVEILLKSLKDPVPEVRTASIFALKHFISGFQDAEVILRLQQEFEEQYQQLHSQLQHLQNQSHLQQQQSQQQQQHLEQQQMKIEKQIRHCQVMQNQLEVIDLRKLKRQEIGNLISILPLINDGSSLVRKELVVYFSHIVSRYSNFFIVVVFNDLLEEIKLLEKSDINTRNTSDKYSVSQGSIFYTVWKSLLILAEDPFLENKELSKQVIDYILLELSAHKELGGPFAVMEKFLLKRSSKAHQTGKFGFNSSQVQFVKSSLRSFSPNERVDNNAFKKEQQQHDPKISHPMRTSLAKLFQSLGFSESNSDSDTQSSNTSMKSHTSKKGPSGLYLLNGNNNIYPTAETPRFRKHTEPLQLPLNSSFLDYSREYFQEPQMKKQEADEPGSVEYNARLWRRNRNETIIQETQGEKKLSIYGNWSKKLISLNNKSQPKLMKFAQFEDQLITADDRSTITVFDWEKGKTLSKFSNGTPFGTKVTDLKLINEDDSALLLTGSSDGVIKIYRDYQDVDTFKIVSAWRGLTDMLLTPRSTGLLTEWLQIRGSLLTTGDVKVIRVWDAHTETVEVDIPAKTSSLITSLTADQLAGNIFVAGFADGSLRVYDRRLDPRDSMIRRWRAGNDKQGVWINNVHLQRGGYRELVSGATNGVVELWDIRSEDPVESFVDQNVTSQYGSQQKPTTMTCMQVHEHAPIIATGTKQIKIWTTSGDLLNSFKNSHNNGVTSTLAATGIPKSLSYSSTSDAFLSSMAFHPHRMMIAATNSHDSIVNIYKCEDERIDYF
T1 sequence (P41318 whole entry partner): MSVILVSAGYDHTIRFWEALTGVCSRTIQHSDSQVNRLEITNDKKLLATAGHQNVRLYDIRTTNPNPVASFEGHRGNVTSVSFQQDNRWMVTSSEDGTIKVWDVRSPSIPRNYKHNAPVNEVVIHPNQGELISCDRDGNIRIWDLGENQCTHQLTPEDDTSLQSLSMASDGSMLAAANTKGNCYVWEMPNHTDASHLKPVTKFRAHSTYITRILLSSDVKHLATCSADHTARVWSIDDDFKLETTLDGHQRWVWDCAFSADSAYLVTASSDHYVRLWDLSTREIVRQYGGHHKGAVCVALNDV

TORC1 [3] = biological target: T1, TORC1; assay: as above; details: for Kd: purified yeast proteins, GFP–Tor1-containing TORC1 7.5 nM, 30 °C, mean ± s.d., n = 3, read-out: Kd (binding to TORC1, MST); for Fraction bound transformed (MST, TORC1 target): Fig. 6d,e
Experimental: The MST experiments were performed using a Monolith NT.115 (Nanotemper Technologies). Purification of TORC1 containing the N-terminally GFP-tagged Tor1 subunit was carried out as described previously. For the protein–protein interaction experiments, GFP–Tor1-containing TORC1 (7.5 nM) was mixed with a series of twofold dilutions (a total of 16 samples) of Acc1 (highest concentration, 80 nM) or Fas1 (highest concentration, 20 nM) purified from yeast through TAP-tag immuno-enrichment with rabbit IgG-coated magnetic beads and subsequent TEV cleavage in elution buffer (50 mM HEPES NaOH pH 7.5 and 150 mM NaCl) for 1 h at 18 °C. The samples were loaded into Monolith NT.115 capillaries and MST measurements were performed using 80% laser power and medium MST power setting at 30 °C. For the small molecule–protein interaction experiments, GFP–Tor1-containing TORC1 (7.5 nM) was mixed with a series of twofold dilutions (a total of 16 samples) of Mal-CoA (M4263, Sigma-Aldrich; highest concentration, 5 mM) dissolved in 50 mM HEPES pH 7.5. The samples were loaded into Monolith NT.115 capillaries and MST measurements were performed using 80% laser power and medium MST power setting at 30 °C. The experiments were performed in triplicate and data were fitted using the Kd model of the MO.Affinity Analysis software (Nanotemper Technologies). The signal-to-noise ratio represents the response amplitude divided by the noise of the measurement. The Kd value was obtained by plotting the bound fraction against the log-transformed ligand concentration.

[4] = test system: intracellular TAG and palmitate (C16:0) levels; assay: TAG and palmitate (C16:0) measurements by LC-HRMS; type: cell-based, human; details: ED Fig. 5t; compared with BSA
Experimental: The intracellular levels of TAGs and palmitate (C16:0) were determined using liquid chromatography-high resolution mass spectrometry-based analysis. Briefly, cells were seeded in 10-cm dishes and treated as described in the ‘Mammalian cell culture treatments’ section. The cells were scraped in medium and collected by centrifugation (400g, 3 min). The pellets were then washed three times with 1 ml ice-cold PBS, snap frozen in liquid nitrogen and kept at −80 °C until further processing.
The samples were vortexed for 10 s immediately after the addition of the extraction buffer and then incubated for 30 min on an orbital shaker at 4 °C. The proteins were pelleted by centrifugation (10 min, 21,000g, 4 °C) and the supernatants were transferred to a clean 2-ml tube. […]
The lipid pellets were resuspended in 200 µl ultra-performance liquid chromatography (UPLC)-grade acetonitrile:isopropanol 70:30 (vol/vol). […] In both cases, the analysed mass range was in the range of m/z 150–1,500. […]
All samples were analysed in a randomized run order. […] For measurements of intracellular TAG abundance (Extended Data Fig. 5r), the sum of all values corresponding to the peak areas for the different individual TAGs was calculated for each sample.

[5] = titrated protein 4.88281e-9 M, Fig. 6d,e
[6] = titrated protein 3.90625e-8 M, Fig. 6d,e
[7] = titrated protein 1.5625e-7 M, Fig. 6d,e

Q: How did the “combined effect of rapamycin and cerulenin on yeast growth” value (yeast cells) turn out when `CO[C@H]1C[C@@H]2CC[C@@H](C)[C@@](O)(O2)C(=O)C(=O)N2CCCC[C@H]2C(=O)O[C@H]([C@H](C)C[C@@H]2CC[C@@H](O)[C@H](OC)C2)CC(=O)[C@H](C)/C=C(\C)[C@@H](O)[C@@H](OC)C(=O)[C@H](C)C[C@H](C)/C=C/C=C/C=C/1C` [rapamycin] was run?
A: Its value is “additive effect”.

Q: “Acc1 purified from yeast (from UniProt Q00955 1-2233) (enzyme)” was tested. Which Kd [1] did it give?
A: The Kd was 49.1 nM.

Q: Which results are given for “Acc1: yeast acetyl-CoA carboxylase purified from yeast through TAP-tag immuno-enrichment”?
A: Fraction bound transformed (MST, TORC1 target) (TORC1 [2]; [5]): 0.03811; Fraction bound transformed (MST, TORC1 target) (TORC1 [2]; [6]): 0.4481; Fraction bound transformed (MST, TORC1 target) (TORC1 [2]; [7]): 0.735; Kd (TORC1 [3]): 49.1 ± 28.3 nM; Fraction bound transformed (MST, TORC1 target) (TORC1 [3]; titrated protein 2.44141e-9 M): 0.1107; Fraction bound transformed (MST, TORC1 target) (TORC1 [3]; titrated protein 9.76563e-9 M): -0.03249; Fraction bound transformed (MST, TORC1 target) (TORC1 [3]; titrated protein 1.95313e-8 M): 0.3896; Fraction bound transformed (MST, TORC1 target) (TORC1 [3]; titrated protein 7.8125e-8 M): 0.8094; Fraction bound transformed (MST, TORC1 target) (TORC1 [3]; titrated protein 3.125e-7 M): 0.5572; Fraction bound transformed (MST, TORC1 target) (TORC1 [3]; titrated protein 6.25e-7 M): 0.7617; Fraction bound transformed (MST, TORC1 target) (TORC1 [3]; titrated protein 1.25e-6 M): 0.8055; Fraction bound transformed (MST, TORC1 target) (TORC1 [3]; titrated protein 2.5e-6 M): 0.9274; Fraction bound transformed (MST, TORC1 target) (TORC1 [3]; titrated protein 5e-6 M): 1.054; Fraction bound transformed (MST, TORC1 target) (TORC1 [3]; titrated protein 1e-5 M): 1.011; Fraction bound transformed (MST, TORC1 target) (TORC1 [3]; titrated protein 2e-5 M): 0.9376; Fraction bound transformed (MST, TORC1 target) (TORC1 [3]; titrated protein 4e-5 M): 1.262; Fraction bound transformed (MST, TORC1 target) (TORC1 [3]; titrated protein 8e-5 M): 1.2067

Q: How did the “C16:0 (peak area), Mean” value [4] turn out when BSA-C16:0 was run?
A: The value was 531779.

Q: For “Fas1 purified from yeast (from UniProt P07149 1-2051) (enzyme)”, which Kd [1] is on record?
A: The Kd was 23.7 nM.

Q: With “Fas1: yeast FA synthase subunit purified from yeast through TAP-tag immuno-enrichment” as the compound, how does the “Fraction bound transformed (MST, TORC1 target)” value (shortened to “Fraction bound transformed”) (TORC1 [2]; [5]) read?
A: The value was 0.2698.

Q: What about the “Fraction bound transformed” value (TORC1 [2]; [6]) of the same compound?
A: The value was 0.7564.

Q: What about the “Fraction bound transformed” value (TORC1 [2]; [7]) of the same compound?
A: Its value is 0.5063.

Q: What about the “Fraction bound transformed” value (TORC1 [2]; titrated protein 1.2207E-09 M, Fig. 6e) of the same compound?
A: Its value is -0.03697.

Q: And the “Fraction bound transformed” value (TORC1 [2]; titrated protein 6.1035E-10 M, Fig. 6e)?
A: The value was -0.1692.

Q: What about the Kd (TORC1 [3]) of the same compound?
A: Its Kd is 23.7 ± 15.4 nM.

Q: And the “Fraction bound transformed” value (TORC1 [3]; titrated protein 2.44141e-9 M)?
A: Its value is 0.1633.

Q: What about the “Fraction bound transformed” value (TORC1 [3]; titrated protein 9.76563e-9 M) of the same compound?
A: Its value is 0.4832.

Q: What about the “Fraction bound transformed” value (TORC1 [3]; titrated protein 1.95313e-8 M) of the same compound?
A: The value was 0.1917.

Q: And the “Fraction bound transformed” value (TORC1 [3]; titrated protein 7.8125e-8 M)?
A: Its value is 0.6873.

Q: What about the “Fraction bound transformed” value (TORC1 [3]; titrated protein 3.125e-7 M) of the same compound?
A: The value was 0.978.

Q: What about the “Fraction bound transformed” value (TORC1 [3]; titrated protein 6.25e-7 M) of the same compound?
A: Its value is 1.128.

Q: What about the “Fraction bound transformed” value (TORC1 [3]; titrated protein 1.25e-6 M) of the same compound?
A: The value was 1.25.

Q: What about the “Fraction bound transformed” value (TORC1 [3]; titrated protein 2.5e-6 M) of the same compound?
A: Its value is 1.151.

Q: What about the “Fraction bound transformed” value (TORC1 [3]; titrated protein 5e-6 M) of the same compound?
A: The value was 0.8443.

Q: What about the “Fraction bound transformed” value (TORC1 [3]; titrated protein 1e-5 M) of the same compound?
A: The value was 0.9239.

Q: What about the “Fraction bound transformed” value (TORC1 [3]; titrated protein 2e-5 M) of the same compound?
A: Its value is 0.8697.
